Experimental findings from doi:10.1101/2021.02.10.430713 are described below.

For this assay, the target named is Listeria monocytogenes c-di-AMP effector protein Lmo0553 (Listeria monocytogenes). The assay is described as follows: crystal structure.

The substance “Listeria monocytogenes c-di-AMP effector protein Lmo0553 (natural protein)” displayed a stoichiometry N of 2.

A word on the stoichiometry N: it is the number of molecules, sites or subunits per partner or assembly.
